Several values for one entry are separate records, joined by “and”; a condition that tells them apart may be missing. Equal entries are not always repeated.

The values that follow come from paper PMC8377056.

For experiment [1], the target named is His-tagged recombinant mouse LDLR (mouse) (UniProt P35951). Nature of the experiment: SPR; His-tagged LDLR immobilised on a NiHC1000m sensor chip; VH4127 (10-160 nM) or Fc(A680)-VH4127 (1-16 nM) injected, single-cycle kinetics; 1:1 Langmuir model; Biacore T200. For orientation: Surface plasmon resonance follows binding to a sensor surface in real time, without labels.
Chain of His-tagged recombinant mouse LDLR (mouse) (P35951 22-790): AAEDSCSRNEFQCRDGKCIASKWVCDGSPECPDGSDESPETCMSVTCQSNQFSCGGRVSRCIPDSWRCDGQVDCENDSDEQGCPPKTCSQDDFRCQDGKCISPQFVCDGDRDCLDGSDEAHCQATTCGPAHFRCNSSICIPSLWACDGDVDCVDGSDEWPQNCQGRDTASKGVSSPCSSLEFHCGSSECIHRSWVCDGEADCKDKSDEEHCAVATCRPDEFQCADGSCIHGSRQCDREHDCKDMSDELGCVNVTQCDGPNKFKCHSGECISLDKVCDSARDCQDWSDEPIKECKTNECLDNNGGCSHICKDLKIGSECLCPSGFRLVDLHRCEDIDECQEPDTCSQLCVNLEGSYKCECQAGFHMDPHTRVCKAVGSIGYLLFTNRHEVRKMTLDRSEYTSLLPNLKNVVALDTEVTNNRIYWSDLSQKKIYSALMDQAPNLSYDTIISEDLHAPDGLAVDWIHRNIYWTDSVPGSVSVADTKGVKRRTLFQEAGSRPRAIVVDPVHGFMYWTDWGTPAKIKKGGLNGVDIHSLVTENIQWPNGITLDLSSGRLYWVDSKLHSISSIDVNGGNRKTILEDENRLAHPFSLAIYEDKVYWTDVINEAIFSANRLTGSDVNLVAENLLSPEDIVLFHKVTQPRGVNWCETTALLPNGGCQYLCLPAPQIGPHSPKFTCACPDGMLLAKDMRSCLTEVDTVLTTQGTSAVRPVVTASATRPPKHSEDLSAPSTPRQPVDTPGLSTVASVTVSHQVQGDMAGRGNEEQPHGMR

The target in experiment [2] is His-tagged recombinant human LDLR (human) (UniProt P01130). Nature of the experiment: SPR; His-tagged LDLR immobilised on a NiHC1000m sensor chip; VH4127 (10-160 nM) injected, single-cycle kinetic method; double-subtracted sensorgrams fitted globally with the 1:1 Langmuir model (Biacore T200).
Chain of His-tagged recombinant human LDLR (human) (P01130 22-788): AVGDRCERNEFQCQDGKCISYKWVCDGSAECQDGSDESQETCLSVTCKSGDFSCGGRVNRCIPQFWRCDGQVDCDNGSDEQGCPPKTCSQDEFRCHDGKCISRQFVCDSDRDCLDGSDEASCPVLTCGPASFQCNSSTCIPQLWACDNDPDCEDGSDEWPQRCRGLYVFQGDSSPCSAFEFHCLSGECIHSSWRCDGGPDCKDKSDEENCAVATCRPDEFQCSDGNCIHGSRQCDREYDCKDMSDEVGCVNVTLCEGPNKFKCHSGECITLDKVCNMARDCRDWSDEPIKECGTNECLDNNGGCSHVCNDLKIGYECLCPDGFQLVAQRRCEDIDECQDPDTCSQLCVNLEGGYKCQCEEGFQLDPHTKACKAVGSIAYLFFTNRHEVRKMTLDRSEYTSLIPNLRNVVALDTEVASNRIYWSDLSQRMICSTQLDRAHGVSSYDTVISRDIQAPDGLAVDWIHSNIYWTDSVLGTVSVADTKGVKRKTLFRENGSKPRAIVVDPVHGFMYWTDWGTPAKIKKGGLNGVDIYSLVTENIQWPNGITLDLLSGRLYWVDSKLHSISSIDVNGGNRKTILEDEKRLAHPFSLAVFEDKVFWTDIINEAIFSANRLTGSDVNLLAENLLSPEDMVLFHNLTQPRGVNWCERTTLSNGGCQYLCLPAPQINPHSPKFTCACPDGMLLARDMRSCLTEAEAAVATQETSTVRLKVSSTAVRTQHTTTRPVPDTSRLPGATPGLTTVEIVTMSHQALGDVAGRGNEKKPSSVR
Experiment [3] deals with His-tagged recombinant mouse LDLR (mouse) (UniProt P35951). The experiment is described as above.
The target in experiment [4] is His-tagged recombinant human LDLR (human) (UniProt P01130). Nature of the experiment: SPR; His-tagged mouse or human LDLR immobilised on a NiHC1000m sensor chip; VH4127 (10-160 nM) or Fc(A680)-VH4127 (1-16 nM) injected, single-cycle kinetics; double-subtracted sensorgrams fitted globally with the 1:1 Langmuir model (Biacore T200).

A word on the Kd: it is the constant that tells how readily two partners part at equilibrium. As to Fc(A680)-VH4127 conjugate (Fc fusion), the dissociation constant (Kd) in experiment [1] was determined as 0.0918 nM.
One may read the koff as a measure of how fast the partners let go of each other. By kon is commonly meant a measure of how fast the partners come together. For VH4127 peptide, the koff was 0.0894 s⁻¹ in experiment [2] and 0.0821 s⁻¹ in experiment [3]. The figures for the kon in experiment [2] and in experiment [3] were 4.06e+06 M⁻¹ s⁻¹ and 1.66e+06 M⁻¹ s⁻¹, respectively. The Kd in experiment [4] was 21.5 nM and 20 nM and 23.2 nM.
